The test system of data set [1] is MCF7. Nature of the data set: percentage of EdU-negative (G0-arrested) nuclei per well, 72 h; higher = more G0 arrest. To be noted: reference: sequence is the full UniProt precursor, the tested protein was the secreted form or ectodomain.
For data set [2], the system named is hTERT-HMEC. The description is as above. To be noted: reference: sequence is the full UniProt precursor, the tested protein was the secreted form or ectodomain.
The mark [3] stands for this setting: protein concentration 0.01625 µM.
The mark [4] stands for this setting: protein concentration 0.1625 µM.
Setting [5] is: protein concentration 0.03125 µM.
Where [6] appears, read: protein concentration 0.3125 µM.
The mark [7] stands for this setting: protein concentration 0.0173625 µM.
Where [8] appears, read: protein concentration 0.173625 µM.
[9] abbreviates: protein concentration 0.0142825 µM.
The mark [10] stands for this setting: protein concentration 0.142825 µM.
Setting [11] is: protein concentration 0.0145 µM.
The mark [12] stands for this setting: protein concentration 0.0334286 µM.
Setting [13] is: protein concentration 0.334286 µM.
[14] abbreviates: protein concentration 0.0225 µM.

± gives the standard deviation of the averaged measurements.
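Further: secreted proteins added to cultured cells, EdU pulse at the end, nuclei found by Hoechst imaging, EdU status from nuclear versus surrounding ring intensity ratio, PBS as neutral control.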

Turning to “MKLALLLPWACCCLCGSALATGFLYPFSAAALQQHGYPEPGAGSPGSGYASRRHWCHHTVTRTVSCQVQNGSETVVQRVYQSCRWPGPCANLVSYRTLIRPTYRVSYRTVTVLEWRCCPGFTGSNCDEECMNCTRLSDMSERLTTLEAKVLLLEAAERPSSPDNDLPAPESTPPTWNEDFLPDAIPLAHPVPRQRRPTGPAGPPGQTGPPGPAGPPGSKGDRGQTGEKGPAGPPGLLGPPGPRGLPGEMGRPGPPGPPGPAGNPGPSPNSPQGALYSLQPPTDKDNGDSRLASAIVDTVLAGVPGPRGPPGPPGPPGPRGPPGPPGTPGSQGLAGERGTVGPSGEPGVKGEEGEKAATAEGEGVQQLREALKILAERVLILEHMIGIHDPLASPEGGSGQDAALRANLKMKRGGAQPDGVLAALLGPDPGQKSVDQASSRK [Q96A83]”, the “percentage of EdU-negative” value in data set [1] (setting [3]) stood at 26.9 ± 1.4%; in data set [1] (setting [4]), 25.1 ± 1.8%; in data set [2] (setting [3]), 4.63 ± 0.36%; in data set [2] (setting [4]) it was 7.44 ± 3.3%.
Regarding “MKLAVTLTLVTLALCCSSASAEICPSFQRVIETLLMDTPSSYEAAMELFSPDQDMREAGAQLKKLVDTLPQKPRESIIKLMEKIAQSSLCN”, the “percentage of EdU-negative” value in data set [1] (setting [5]) amounted to 22.8 ± 2.1%; in data set [1] (setting [6]), 24.6 ± 0.57%; in data set [2] (setting [5]) it was 4.77 ± 0.77%; in data set [2] (setting [6]) it was 4.91 ± 0.97%.
Regarding “MKLCSLAVLVPIVLFCEQHVFAFQSGQVLAALPRTSRQVQVLQNLTTTYEIVLWQPVTADLIVKKKQVHFFVNASDVDNVKAHLNVSGIPCSVLLADVEDLIQQQISNDTVSPRASASYYEQYHSLNEIYSWIEFITERHPDMLTKIHIGSSFEKYPLYVLKVSGKEQAAKNAIWIDCGIHAREWISPAFCLWFIGHITQFYGIIGQYTNLLRLVDFYVMPVVNVDGYDYSWKKNRMWRKNRSFYANNHCIGTDLNRNFASKHWCEEGASSSSCSETYCGLYPESEPEVKAVASFLRRNINQIKAYISMHSYSQHIVFPYSYTRSKSKDHEELSLVASEAVRAIEKISKNTRYTHGHGSETLYLAPGGGDDWIYDLGIKYSFTIELRDTGTYGFLLPERYIKPTCREAFAAVSKIAWHVIRNV [Q96IY4]”, the “percentage of EdU-negative” value in data set [1] (setting [7]) came out at 24.7 ± 2.5%; in data set [1] (setting [8]), 26.8 ± 0.93%; in data set [2] (setting [7]), 5.24 ± 0.032%; in data set [2] (setting [8]), 5.84 ± 0.41%.
“MKLCVTVLSLLMLVAAFCSPALSAPMGSDPPTACCFSYTARKLPRNFVVDYYETSSLCSQPAVVFQTKRSKQVCADPSESWVQEYVYDLELN”: the “percentage of EdU-negative” value in data set [1] (setting [9]) was found to be 24.5 ± 1.1%; in data set [1] (setting [10]), 25.7 ± 0.56%; in data set [2] (setting [9]) it was 5.53 ± 0.77%; in data set [2] (setting [10]) it was 5.12 ± 0.26%.
Turning to “MKLCVTVLSLLVLVAAFCSLALSAPMGSDPPTACCFSYTARKLPRNFVVDYYETSSLCSQPAVVFQTKRGKQVCADPSESWVQEYVYDLELN [Q8NHW4]”, the “percentage of EdU-negative” value in data set [1] (setting [11]) is 23.4 ± 2%; in data set [1] (protein concentration 0.145 µM), 25.62 ± 0.055%; in data set [2] (setting [11]), 5.26 ± 0.85%; in data set [2] (protein concentration 0.145 µM), 6.68 ± 1.3%.
As to “MKLDMTGDCTPVLVLMAAVLTVTGAVPVARLHGALPDARGCHIAQFKSLSPQELQAFKRAKDALEESLLLKDCRCHSRLFPRTWDLRQLQVRERPMALEAELALTLKVLEATADTDPALVDVLDQPLHTLHHILSQFRACIQPQPTAGPRTRGRLHHWLYRLQEAPKKESPGCLEASVTFNLFRLLTRDLNCVASGDLCV [Q8IZJ0]”, the “percentage of EdU-negative” value in data set [1] (setting [12]) worked out at 22.9 ± 3.6%; in data set [1] (setting [13]), 25.9 ± 4.6%; in data set [2] (setting [12]) it was 5.29 ± 0.59%; in data set [2] (setting [13]) it was 9.88 ± 1.6%.
With “MKLGLLCALLSLLAGHGWADTRAIGAEECRPNSQPWQAGLFHLTRLFCGATLISDRWLLTAAHCRKPYLWVRLGEHHLWKWEGPEQLFRVTDFFPHPGFNKDLSANDHNDDIMLIRLPRQARLSPAVQPLNLSQTCVSPGMQCLISGWGAVSSPKALFPVTLQCANISILENKLCHWAYPGHISDSMLCAGLWEGGRGSCQGDSGGPLVCNGTLAGVVSGGAEPCSRPRRPAVYTSVCHYLDWIQEIMEN [Q9UKQ9]”, the “percentage of EdU-negative” value turned out to be 26.66 ± 0.14% in data set [1] (setting [14]), 29.4 ± 2.3% in data set [1] (protein concentration 0.225 µM), 5.253 ± 0.046% in data set [2] (setting [14]) and 5.62 ± 1.2% in data set [2] (protein concentration 0.225 µM).
For “MKLHYVAVLTLAILMFLTWLPESLSCNKALCASDVSKCLIQELCQCRPGEGNCSCCKECMLCLGALWDECCDCVGMCNPRNYSDTPPTSKSTVEELHEPIPSLFRALTEGDTQLNWNIVSFPVAEELSHHENLVSFLETVNQPHHQNVSVPSNNVHAPYSSDKEHMCTVVYFDDCMSIHQCKISCESMGASKYRWFHNACCECIGPECIDYGSKTVKCMNCMF [Q9GZX9]” the same measures were 23.8 ± 4.6%, 28.8 ± 0.54%, 4.64 ± 0.11% and 12.59 ± 0.086%.

For the origin of these results see the supplement of paper PMC11316812.
